Here are results for 20 molecules from patent publication US20220389118A1 (Chugai, published 2022).

The term Kd denotes the free concentration of one partner at which half of the binding sites on the other are occupied at equilibrium, for simple one-to-one binding. The low end stands for a tighter complex, the high end for a looser complex.

Numbering of substitutions follows the chain as printed. Like-named read-outs stand apart in the source and are kept apart here.

For assay [1], the target named is T1, soluble human IL-6 receptor (human, UniProt P08887 20-357).
T1 construct: also called hsIL-6R
T1 sequence: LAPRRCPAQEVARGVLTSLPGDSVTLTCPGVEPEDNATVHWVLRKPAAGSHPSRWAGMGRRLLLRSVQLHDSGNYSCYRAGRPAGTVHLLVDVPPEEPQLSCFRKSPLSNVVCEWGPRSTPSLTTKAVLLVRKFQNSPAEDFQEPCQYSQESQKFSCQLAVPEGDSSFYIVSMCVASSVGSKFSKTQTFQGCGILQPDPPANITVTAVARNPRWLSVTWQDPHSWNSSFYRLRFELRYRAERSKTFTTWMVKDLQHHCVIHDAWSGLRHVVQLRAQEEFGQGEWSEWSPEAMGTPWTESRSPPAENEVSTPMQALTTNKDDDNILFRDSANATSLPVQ
The experiment in a line: SPR (Biacore T100), antibody captured on a Protein A/G chip (CM5), human IL-6 receptor as analyte, 1.2 mM CaCl2, pH 7.4, 37 °C. As to the method: The interaction was analyzed in solutions at 1.2 mM and 3 μM calcium ion concentration, corresponding to high and low calcium ion concentration conditions, respectively. An appropriate amount of Protein A/G (Invitrogen) was immobilized onto a Sensor chip CM5 (GE Healthcare) by an amino coupling method, and antibodies of interest were captured onto the chip. The two types of running buffers used were: 20 mM ACES/150 mM NaCl/0.05% (w/v) Tween20/1.2 mM CaCl₂ (pH 7.4); and 20 mM ACES/150 mM NaCl/0.05% (w/v) Tween20/3 μM CaCl₂ (pH 7.4). These buffers were each used to dilute human IL-6 receptor. All measurements were carried out at 37° C.
Then, 10 mM glycine-HCl (pH 1.5) was injected at a flow rate of 30 μl/min for 30 seconds to regenerate the sensor chip.
On the technique in general: In SPR one partner is held on a chip, and binding of the other changes the refractive index at the surface.

Assay [2] deals with T2, human FcγRIIb extracellular domain with C-terminal His tag (human, UniProt P31994 43-217).
T2 construct: extracellular domain; also called FcgRIIb
T2 sequence (looked up): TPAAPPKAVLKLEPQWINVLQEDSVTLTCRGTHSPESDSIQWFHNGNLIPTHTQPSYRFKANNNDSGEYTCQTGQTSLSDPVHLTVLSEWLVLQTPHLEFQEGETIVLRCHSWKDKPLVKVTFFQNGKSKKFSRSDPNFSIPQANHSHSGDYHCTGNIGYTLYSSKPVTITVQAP
The experiment in a line: SPR (Biacore).

The target in assay [3] is T3, human FcγRIa extracellular domain with C-terminal His tag (human, UniProt P12314 16-292).
T3 construct: extracellular domain; also called FcgRIa
The experiment in a line: SPR (Biacore).
T3 sequence (P12314 16-292): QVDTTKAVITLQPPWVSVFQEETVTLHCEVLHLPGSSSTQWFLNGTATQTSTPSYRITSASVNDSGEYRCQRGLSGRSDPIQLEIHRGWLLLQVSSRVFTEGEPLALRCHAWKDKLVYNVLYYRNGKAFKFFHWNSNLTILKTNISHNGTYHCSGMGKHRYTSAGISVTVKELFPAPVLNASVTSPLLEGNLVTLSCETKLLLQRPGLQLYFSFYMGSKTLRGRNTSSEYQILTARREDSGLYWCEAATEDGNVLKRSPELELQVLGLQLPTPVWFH

In assay [4] the target is T4, human FcγRIIa type R (R131) extracellular domain with C-terminal His tag (human, UniProt P12318 34-217).
T4 construct: extracellular domain; also called FcγRIIaR; not shown: His tag at the C terminus
T4 sequence (looked up): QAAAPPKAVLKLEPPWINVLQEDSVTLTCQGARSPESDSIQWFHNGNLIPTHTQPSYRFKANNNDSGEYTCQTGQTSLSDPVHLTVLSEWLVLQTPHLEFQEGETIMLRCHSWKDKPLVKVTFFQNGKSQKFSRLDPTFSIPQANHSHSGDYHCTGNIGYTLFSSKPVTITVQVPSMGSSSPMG
The experiment in a line: SPR (Biacore), antibody captured, FcγR analyte.

Assay [5] concerns the target T5, human FcγRIIa type H (allotype H131) extracellular domain with C-terminal His tag (human, UniProt P12318 34-217).
T5 construct: extracellular domain; also called FcγRIIaH; FcγRIIa H type; not shown: His tag at the C terminus
T5 sequence (looked up): T4 sequence (looked up) with R134H
Description: SPR (Biacore), antibody captured, FcγR analyte.

In assay [6] the target is T6, human FcγRIIIa type V extracellular domain with C-terminal His tag (human, UniProt P08637 17-208).
T6 construct: extracellular domain; also called FcγRIIIaV; FcgRIIIaV
T6 sequence (P08637 17-208 F176V): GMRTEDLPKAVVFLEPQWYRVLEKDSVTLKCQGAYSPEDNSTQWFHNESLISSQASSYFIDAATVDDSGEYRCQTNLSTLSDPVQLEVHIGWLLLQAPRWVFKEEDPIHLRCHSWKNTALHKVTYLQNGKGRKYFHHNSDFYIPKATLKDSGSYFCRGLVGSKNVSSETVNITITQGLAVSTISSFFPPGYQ
Description: SPR (Biacore).

Assay [7] concerns the target T7, human FcγRIIa type H extracellular domain with C-terminal His tag (human, UniProt P12318 34-217).
T7 construct: extracellular domain; also called FcγRIIaH; FcgRIIaH
T7 sequence (looked up): T4 sequence (looked up) with R134H
The experiment in a line: SPR (Biacore).

The target in assay [8] is T8, human FcγRIIa type R extracellular domain with C-terminal His tag (human, UniProt P12318 34-217).
T8 construct: extracellular domain; also called FcγRIIaR; FcγRIIa(R)
T8 sequence (looked up): T4 sequence (looked up)
Description: SPR (Biacore); worded summary of Table 28.

In assay [9] the target is T9, human FcγRIIb extracellular domain with C-terminal His tag (human, UniProt P31994 43-217).
T9 construct: extracellular domain
T9 sequence (looked up): T2 sequence (looked up)
Description: SPR (Biacore); worded summary of Table 28.

Assay [10] concerns the target T8, human FcγRIIa type R extracellular …. The experiment in a line: SPR (Biacore), parent IL6R-B3/IL6R-L.
The target of assay [11] is T9, human FcγRIIb extracellular domain with …. The experiment in a line: SPR (Biacore), parent IL6R-B3/IL6R-L.
Assay [12] has the same target. Description: SPR (Biacore), ratio of KDs.
Assay [13] concerns the target T8, human FcγRIIa type R extracellular …. Description: SPR (Biacore).
Assay [14] has as its target T9, human FcγRIIb extracellular domain with …. Description: SPR (Biacore).
The target of assay [15] is T10, human FcγRIa extracellular domain with C-terminal His tag (human, UniProt P12314 16-292).
T10 construct: extracellular domain
Description: SPR (Biacore).
T10 sequence (P12314 16-292): as the sequence (P12314 16-292) above

Assay [16] deals with T11, human FcγRIa extracellular domain with C-terminal His tag (human, UniProt P12314 16-292).
T11 construct: not shown: His tag at the C terminus
Description: SPR (Biacore), antibody captured, FcγR analyte.
T11 sequence (P12314 16-292): as above

B1: 6RC1IgG_012 (antibody, V domains shown)
VH: QVQLVQSGAEVKKPGASVKVSCKASGYTFTSYGISWVRQAPGQGLEWMGWISAYNGNTNYAQKLQGRVTMTTDTSTSTAYMELRSLRSDDTAVYYCARATYYYDSSAPAFDIWGQGTMVTVSS
VL: DIQMTQSPSSLSASVGDRVTITCRASQSIEDDLAWYQQKPGKAPKLLIYEASTLQSGVPSRFSGSGSGTDFTLTISSLQPEDFATYYCQQHDDSPLTFGQGTKVEIKR
Turning to B1, the binding result in assay [1] is listed as “binds”.

B2: 6RC1IgG_010 (antibody, V domains shown)
VH: QVQLVQSGAEVKKPGSSVKVSCKASGGTFSSYAISWVRQAPGQGLEWMGGIIPIFGTANYAQKFQGRVTITADESTSTAYMELSSLRSEDTAVYYCARAAFLEWPIWGSEYFQHWGQGTLVTVSS
VL: B1 VL with E50H, T53S, H91R, D93S, S94Y
Regarding B2, in assay [1], the binding result is given as “binds”.

B3: 6RC1IgG_019 (antibody, V domains shown)
VH: EVQLVQSGAEVKKPGSSVKVSCKASGGTFSSYAISWVRQAPGQGLEWMGGIIPIFGTANYAQKFQGRVTITADESTSTAYMELSSLRSEDTAVYYCARDRGSGFNWGNYAFDIWGQGFSVTVSS
VL: B1 VL with T53N, H91Y, D93R, S94Y, L96Y
On to B3, for which the binding result in assay [1] is given as “binds”.

B4: tocilizumab (antibody, human IgG1, kappa)
heavy: not shown
light: not shown
notes: also called anti-IL-6R antibody (tocilizumab)
Turning to B4, the binding result in assay [1] is reported as “binds”.

B5: IL6R-2B261/IL6R-L (antibody, human IgG1, kappa)
heavy: QVQLQESGPGLVKPSETLSLTCAVSGHSISHDHAWSWVRQPPGEGLEWIGFISYSGITNYNPSLQGRVTISRDNSKNTLYLQMNSLRAEDTAVYYCARSLARTTAMDYWGEGTLVTVSSASTKGPSVFPLAPSSKSTSGGTAALGCLVKDYFPEPVTVSWNSGALTSGVHTFPAVLQSSGLYSLSSVVTVPSSSLGTQTYICNVNHKPSNTKVDKKVEPKSCDKTHTCPPCPAPDLLGGDSVFLFPPKPKDTLMISRTPEVTCVVVDVSHEDPEVKFNWYVDGVEVHNAKTKPREEQDNSTYRVVSVLTVLHQDWLNGKEYKCKVSNKALPAPIEKTISKAKGQPREPQVYTLPPSRDELTKNQVSLTCLVKGFYPSDIAVEWESNGQPENNYKTTPPVLDSDGSFFLYSKLTVDKSRWQQGNVFSCSVMHEALHNHYTQESLSLSP
light: not shown
notes: EU numbering; alterations on IL6R-B3; copies: 2 + 2
Consider B5, for which the Kd in assay [2] was 1000 nM; in [3], 9 nM.

B6: IL6R-BP520/IL6R-L (antibody, human IgG1, kappa)
heavy: B5 heavy with G239D, H270E, P273G, E274M, D298Y
light: not shown
notes: E272M introduced into IL6R-BP267; copies: 2 + 2
As for B6, the dissociation constant Kd in assay [4] turned out to be 3000 nM.

B7: IL6R-BP348/IL6R-L (antibody, human IgG1, kappa)
heavy: B5 heavy with G239D, S269A, H270E, P273G, D298Y
light: not shown
notes: S267A introduced into IL6R-BP267; copies: 2 + 2
B7: the affinity in [4], expressed as Kd, was 700 nM.

B8: IL6R-BP241/IL6R-L (antibody, human IgG1, kappa)
heavy: B5 heavy with G239D, H270D, P273G, D298Y, K328D, A332R
light: not shown
notes: copies: 2 + 2
As to B8, the Kd in assay [5] came to 9 µM.

B9: IL6R-BP180/IL6R-L (antibody, human IgG1, kappa)
heavy: B5 heavy with D235E, G239D, P273G, D298Y, A332K
light: not shown
notes: EU numbering; alterations on IL6R-B3; also called IL6R-BF180/IL6R-L; copies: 2 + 2
As for B9, the values for the Kd in assay [3] and in assay [6] were 98 nM and 70 µM, respectively.

B10: IL6R-BP130/IL6R-L (antibody, human IgG1, kappa)
heavy: B5 heavy with D298Y, V325M, A332K
light: not shown
notes: as for B5
With B10, the Kd in [2] was 300 nM.

B11: IL6R-BP148/IL6R-L (antibody, human IgG1, kappa)
heavy: B5 heavy with L236Y, G239D, D298Y, K328A, A332K
light: not shown
notes: as for B5
Consider B11, for which the dissociation constant Kd in [7] stood at 7 µM; in assay [6] it was 30 µM.

B12: IL6R-BP084/IL6R-L (antibody, human IgG1, kappa)
heavy: B5 heavy with D235E, D298Y, V325M, A332K
light: not shown
notes: as for B5
Consider B12, for which the values for the dissociation constant (Kd) in assay [2] and in assay [3] were 500 nM and 7 nM, respectively.

B13: IL6R-BP559/IL6R-L (antibody, human IgG1, kappa)
heavy: B5 heavy with D235E, V266I, S269A, H270E, P273G, E274D
light: not shown
notes: copies: 2 + 2
Regarding B13, in assay [8], the “FcγRIIaR binding as compared to IL6R-B3/IL6R-L” value is not above 1.5 times. In [9], the “FcγRIIb-binding activity as compared to IL6R-B3/IL6R-L” value is not below 100 times. Besides, the “KD(IIaR) parent/KD(IIaR) altered polypeptide” value in assay [10] was found to be 0.7. In addition, the “KD(IIb) parent/KD(IIb) altered polypeptide” value in [11] turned out to be 110. Besides, the “KD(IIaH)/KD(IIb)” value in assay [12] amounted to 712. In addition, the “KD(IIaR)/KD(IIb)” value in [12] came to 58.4. The results for the Kd in [13], in assay [14] and in assay [15] were 1600 nM, 28 nM and 1.1 nM, respectively.

B14: IL6R-BP243/IL6R-L (antibody, human IgG1, kappa)
heavy: B5 heavy with L236Y, G239D, H270D, P273G, D298Y, A332R
light: not shown
notes: copies: 2 + 2
For the molecule B14, the values for the dissociation constant Kd in assay [16] and in [5] were 3 nM and 6 µM, respectively.

B15: IL6R-BP151/IL6R-L (antibody, human IgG1, kappa)
heavy: B5 heavy with L236Y, G239D, D298Y, K328A, A332R
light: not shown
notes: as for B5
B15: in assay [2], the dissociation constant (Kd) is 40 nM.

B16: IL6R-BP514/IL6R-L (antibody, human IgG1, kappa)
heavy: B5 heavy with G239D, H270E, P273G, E274F, D298Y
light: not shown
notes: E272F introduced into IL6R-BP267; copies: 2 + 2
B16 yielded a Kd in assay [4] of 3000 nM.

B17: IL6R-BP238/IL6R-L (antibody, human IgG1, kappa)
heavy: B5 heavy with L236Y, G239D, H270D, P273G, K328A, A332R
light: not shown
notes: copies: 2 + 2
In the case of B17, binding in assay [5] was put at a Kd of 7 µM.

B18: IL6R-BP517/IL6R-L (antibody, human IgG1, kappa)
heavy: B5 heavy with G239D, H270E, P273G, E274I, D298Y
light: not shown
notes: E272I introduced into IL6R-BP267; copies: 2 + 2
In [4], B18 showed a Kd of 2100 nM.

B19: IL6R-BP182/IL6R-L (antibody, human IgG1, kappa)
heavy: B5 heavy with P273G, A332K
light: not shown
notes: as for B5
On to B19, for which binding in assay [3] was put at a Kd of 10 nM.

B20: IL6R-BP234/IL6R-L (antibody, human IgG1, kappa)
heavy: B5 heavy with L236Y, G239D, S269Q, H270D, P273G, K328D, A332K
light: not shown
notes: copies: 2 + 2
Molecule B20 came in with a Kd in assay [5] of 20 µM.
